In article doi:10.1101/2022.10.19.512833 (bioRxiv, 2022):

T1: human TSG101 UEV (1-145) domain (human, UniProt Q99816 1-145)
T1 sequence (looked up): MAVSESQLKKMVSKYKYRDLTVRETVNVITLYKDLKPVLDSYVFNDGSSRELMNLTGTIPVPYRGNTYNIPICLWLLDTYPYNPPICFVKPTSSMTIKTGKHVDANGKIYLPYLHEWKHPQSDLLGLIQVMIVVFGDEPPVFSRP


Molecular target: T1, human TSG101 UEV (1-145) domain
Assay: fluorescence polarisation

Binder	Kd [µM]
LQSRPEPTAPPEESFR (peptide, UniProt P04591 449-464, looked up) [GAG (HIV-1) residues 449-464, unlabeled peptide]	15.3
APQGLIPTAPPADPAA [GAG (HIV-2) peptide, residues 450-465, unlabeled]	6
